Where a chain is given by its changes, count along the chain named. Like-named read-outs stand apart in the source and are kept apart here.

The target of experiment [1] is T1, recombinant human GPC3 protein (human, UniProt P51654 25-563).
T1 construct: also called human GPC3 full-length protein; recombinant GPC3 protein
Put plainly: ELISA, coated antigen 1 µg/ml. How it is done: (§1) The high-affinity positive clone 49G8 was selected to detect binding activity to recombinant human, cynomolgus monkey, mouse GPC3 full-length proteins, and recombinant human GPC3 extracellular domain membrane-proximal proteins. 1 μg/ml of the above-mentioned protein was coated overnight at 4° C. After blocking, 49G8 chimeric antibody (initial concentration 200 nM, 3-fold gradient dilution, a total of 12 concentrations) was added and reacted for 1 hour at room temperature. The secondary antibody HPR-labeled goat anti-human IgG Fc was added. After being developed by the TMB solution, the reaction was stopped with concentrated sulfuric acid, and the absorbance was read at […]. The 49G8 antibody can bind to the full-length human and cynomolgus monkey GPC3 proteins and the membrane-proximal end of the extracellular region of human GPC3 with a slightly higher affinity than the control antibody and a weak affinity to mouse GPC3 protein (Table 3).
(In general: ELISA stands for enzyme-linked immunosorbent assay.)

Experiment [2] has as its target T2, recombinant cynomolgus monkey GPC3 full-length protein (cynomolgus monkey, UniProt A0A2K5VK50 24-558). As to the kind of experiment: ELISA, coated antigen 1 µg/ml. How it is done:
as §1

Experiment [3] deals with T3, recombinant GST-human GPC3 stem protein (human).
T3 construct: also called recombinant human GPC3 extracellular domain membrane-proximal protein
Put plainly: ELISA, coated antigen 1 µg/ml. The procedure:
as §1

The target of experiment [4] is T4, human GPC3 on cells (human, UniProt P51654 25-563).
T4 construct: whole, on cells; One molecule is used for both CHO-hGPC3 transfectants and GPC3+ HepG2 cells; The assay field names the cell; also called CHO-hGPC3 (clone 2B10); CHO-human GPC3
Put plainly: flow cytometry, CHO-human GPC3 cells. How it is done:
The binding of the antibodies to human GPC3 stably-transfected cells was detected by FACS. CHO-human GPC3 stably-transfected cells prepared in Example 1 in the logarithmic growth phase were adjusted to 5×10⁵ cells/ml with 4% calf serum (Hyclone, SH30626.06). 100 μl/well of cell suspension was added to a 96-well U-plate, and centrifuged at 300 g for 5 min. The supernatant was discarded. 100 μL of gradient diluted antibodies (initial concentration 200 nM, 3-fold dilution, 12 gradients) was added to each well and incubated at 4° C. for 45 min. The secondary antibody Alexa Fluro647 labeled goat anti-human IgG Fc (1:300 dilution) was added at 50 μL/well, incubated on ice for 45 minutes, and detected by flow cytometry.
In general terms: A flow cytometer gives signals particle by particle.

The target in experiment [5] is T1, recombinant human GPC3 protein. As to the kind of experiment: BLI (Octet), antibody on Protein A probe. The procedure: Using BLI technology (Octet), the antibody to be tested was captured on the Protein A probe. The binding capacity with human GPC3 protein (10 μg/ml as the initial concentration, 2-fold gradient, a total of 5 concentration points) was detected. The affinity constant KD was obtained according to the association and dissociation rates.

The target is the same in experiment [6]. Put plainly: BLI (Octet), antibody on Protein A probe. The procedure:
Using BLI technology (Octet), the antibody to be tested was captured on the Protein A probe. The binding capacity with human GPC3 protein (10 μg/ml as the initial concentration, 2-fold gradient, a total of 5 concentration points) was detected. The affinity constant KD was obtained according to the association and dissociation rates. The 49G8 humanized antibody binds to the recombinant GPC3 protein with high affinity. The affinity data is seen in Table 6.
This is another data set of the same source. A general note: BLI is a label-free optical method that tracks binding on a fibre tip over time.

For experiment [7] the target is unchanged. As to the kind of experiment: ELISA on coated recombinant human GPC3 protein, OD450 [panel Recombinant human GPC3 protein].
In experiment [8] the target is T2, recombinant cynomolgus monkey GPC3 …. As to the kind of experiment: ELISA on coated recombinant cynomolgus monkey GPC3 protein, OD450 [panel Recombinant cynomolgus monkey GPC3 protein].
The target in experiment [9] is T5, human CD3 on T cells (human, UniProt P07766 23-207).
T5 construct: whole, on cells; The target is the native CD3 complex on cells; The recombinant antigen used elsewhere is the εγ heterodimer; also called CD3 on Jurkat cells; CD3 on human peripheral blood CD4+ and CD8+ T cells
Put plainly: flow cytometry, Jurkat cells. How it is done: Jurkat cells in the logarithmic growth phase were taken, blocked with 3% BSA for 30 min, and added to 96-well U-plate at 5×10⁴ cells per well. The supernatant was discarded after centrifugation. 50 μL of gradient diluted antibody was added (antibody concentration: from 30 ng/mL, 3-fold dilution for 5 gradients) per well, and incubated at 4° C. for 1 hour. […] After washing, 50 μL PBS was added per well to perform resuspending for FACS (iQue, intellicyt) assay (the results are seen in FIG. 13, and Table 10).

In experiment [10] the target is T6, human CD3εγ-Fc heterodimer (human).
T6 construct: also called human CD3 εγ protein; recombinant CD3 εγ protein
T6 chain 1: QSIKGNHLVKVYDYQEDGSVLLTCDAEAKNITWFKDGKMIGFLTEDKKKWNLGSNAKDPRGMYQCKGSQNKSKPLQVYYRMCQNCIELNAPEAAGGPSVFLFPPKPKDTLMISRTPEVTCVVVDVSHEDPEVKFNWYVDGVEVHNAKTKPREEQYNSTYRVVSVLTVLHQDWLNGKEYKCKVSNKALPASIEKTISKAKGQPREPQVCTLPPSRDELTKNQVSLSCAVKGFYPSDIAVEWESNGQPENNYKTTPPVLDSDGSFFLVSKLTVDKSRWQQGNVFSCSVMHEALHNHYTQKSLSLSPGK
T6 chain 2: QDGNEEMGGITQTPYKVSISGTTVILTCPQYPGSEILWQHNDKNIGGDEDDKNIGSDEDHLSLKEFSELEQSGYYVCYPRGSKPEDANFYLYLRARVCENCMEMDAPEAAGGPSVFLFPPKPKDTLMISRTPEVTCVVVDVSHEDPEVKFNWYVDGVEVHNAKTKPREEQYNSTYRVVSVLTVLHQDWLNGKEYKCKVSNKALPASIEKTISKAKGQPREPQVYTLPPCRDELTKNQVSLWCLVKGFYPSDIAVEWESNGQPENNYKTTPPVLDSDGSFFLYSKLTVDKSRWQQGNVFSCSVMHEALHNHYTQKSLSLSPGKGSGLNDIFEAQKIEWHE
As to the kind of experiment: ELISA, coated human CD3εγ protein. How it is done:
Human CD3 εγ protein was coated overnight at 4° C. After blocking with 2% skim milk, different dilutions of CD3 antibodies was added to each well and incubated for 1 hour. The secondary antibody HPR-labeled goat anti-human IgG Fc was added. After being developed by the TMB solution, the reaction was stopped with the concentrated sulfuric acid, and the absorbance was read at 450 nm (the results are shown in FIG. 12 and Table 8).

Experiment [11] addresses T6, human CD3εγ-Fc heterodimer. Put plainly: ELISA on coated human CD3εγ protein, A450 [panel Human CD3 εγ dimer]. The procedure: (§2) Human CD3 εγ protein and monkey CD3 εγ protein were coated separately overnight at 4° C. After blocking with 2% skim milk, different dilutions of CD3 antibody were added to each well and incubated for 1 hour. The secondary antibody HPR-labeled goat anti-human IgG Fc was added. After being developed by the TMB solution. The reaction was stopped with the concentrated sulfuric acid and the absorbance was read at 450 nm.

The target of experiment [12] is T7, cynomolgus monkey CD3εγ-Fc heterodimer (cynomolgus monkey).
T7 construct: also called monkey CD3 εγ protein
T7 chain 1: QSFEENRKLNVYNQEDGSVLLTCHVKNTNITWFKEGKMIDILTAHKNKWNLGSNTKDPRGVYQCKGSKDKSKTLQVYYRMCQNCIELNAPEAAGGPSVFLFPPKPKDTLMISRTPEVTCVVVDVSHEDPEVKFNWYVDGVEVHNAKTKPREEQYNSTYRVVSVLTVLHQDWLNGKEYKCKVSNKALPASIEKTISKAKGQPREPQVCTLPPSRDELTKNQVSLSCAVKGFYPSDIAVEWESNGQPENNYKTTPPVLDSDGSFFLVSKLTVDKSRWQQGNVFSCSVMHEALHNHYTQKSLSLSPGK
T7 chain 2: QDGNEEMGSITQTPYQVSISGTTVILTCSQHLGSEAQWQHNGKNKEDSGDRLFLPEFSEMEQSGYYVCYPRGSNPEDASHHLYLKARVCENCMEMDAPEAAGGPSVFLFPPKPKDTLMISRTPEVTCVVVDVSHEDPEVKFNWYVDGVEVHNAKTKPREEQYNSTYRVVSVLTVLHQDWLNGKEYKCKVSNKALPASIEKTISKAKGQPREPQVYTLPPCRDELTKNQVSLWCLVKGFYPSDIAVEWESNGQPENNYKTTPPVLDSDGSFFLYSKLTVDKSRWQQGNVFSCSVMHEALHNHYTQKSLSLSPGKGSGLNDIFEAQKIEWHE
As to the kind of experiment: ELISA on coated monkey CD3εγ protein, A450 [panel Monkey CD3 εγ dimer]. The procedure:
as §2

T3 sequence (chain, as listed by the source limits assumed): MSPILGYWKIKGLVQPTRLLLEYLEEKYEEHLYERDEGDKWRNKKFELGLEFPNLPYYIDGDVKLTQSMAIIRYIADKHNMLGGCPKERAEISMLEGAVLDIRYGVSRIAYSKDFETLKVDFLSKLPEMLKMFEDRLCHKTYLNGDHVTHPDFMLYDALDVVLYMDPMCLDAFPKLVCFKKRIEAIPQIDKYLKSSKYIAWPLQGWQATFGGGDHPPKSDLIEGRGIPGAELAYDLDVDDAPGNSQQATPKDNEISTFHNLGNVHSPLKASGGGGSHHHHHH

B1: 49G8 (antibody, V domains shown)
VH: QVQLQQSGAELVRPGASVKLSCKALGYTFADYEIHWVKQTPVHGLEWIGAIHPGSGGTAYNQTFEGKATLTADKSSTTAYMELSSLTSEDSAVYYCTRYYSFAYWGQGTLVTVSA
VL: DVVMTQTPLSLPVSLGDQASISCRSSQSIVHSNGNTYLEWYLQKPGQSPKLLIYKVSNRFSGVPDRFSGSGSGTDFTLKISRVEAEDLGVYFCLQVTHVPLTFGAGTKLELK
notes: Chimeric human IgG1; also called 49G8 chimeric antibody; Mab 49G8
As usually defined, the EC50 is the concentration giving half of the maximal effect. Usually Kd stands for the constant that tells how readily two partners part at equilibrium. A word on the koff: it is the first-order rate constant of dissociation. The kon is the rate constant with which the complex forms. By EC50 (read off the curve) is commonly meant the concentration that produces a half-maximal response. As to B1, the EC50 in experiment [1] is 0.072 nM; in experiment [2] it was 0.12 nM; in [3], 0.074 nM; in experiment [4] it was 1.18 nM. Moreover, the Kd is 3.32 nM in [5] and 1.17 nM in experiment [6]. The results for the off-rate (koff) in experiment [5] and in experiment [6] were 0.000231 s⁻¹ and 9.35e-05 s⁻¹, respectively. For the same molecule, the kon in experiment [5] is 69400 M⁻¹ s⁻¹; in [6], 79700 M⁻¹ s⁻¹. Besides, the “EC50 (read off the curve)” value in [7] and in experiment [8] was about 0.03 nM throughout.

B2: aCD3-hVH9/VL2 (antibody, V domains shown)
VH: EVQLVESGGGLVQPGGSLRLSCAASGFTFNTYAMNWVRKAPGKGLEWVGRIRSKYNNYATYYADSVKDRFTISRDDSKNSLYLQMNSLKTEDTAVYYCVRHGNFGNSYVSWFAYWGQGTLVTVSS
VL: QAVVTQEPSLTVSPGGTVTLTCRSSTGAVTTSNYANWVQEKPGQAPRGLIGGTNKRAPWTPARFSGSLLGGKAALTLSGAQPEDEAEYYCALWYSNLWVFGGGTKLTVL
notes: Human IgG4, lambda
In the case of B2, the results for the EC50 in [9] and in experiment [10] were 25 nM and 0.44 nM, respectively. In addition, the “EC50 (read off the curve)” value in experiment [11] and in [12] was about 0.04 ng/mL in each case.

B3: aCD3-hVH9/VL5 (antibody, V domains shown)
VH: B2 VH
VL: B2 VL with L77I, S78T, P82A, A91V
notes: Human IgG4, lambda
Consider B3, for which the EC50 in [9] came out at 20 nM; in [10], 0.42 nM. Besides, the “EC50 (read off the curve)” value in [11] and in experiment [12] was about 0.05 ng/mL throughout.

(Values after patent US20240043568A1 (KEYMED BIOSCIENCES, published 2024).)
